Laboratory results from patent publication US20100041875A1 (PROGENICS PHARMACEUTICAL INC AND CORNELL RESEARCH FOUNDATION, published 2010).

Target: full-length WT JR-FL (gp160) Env (JR-FL WT) (HIV-1 isolate JR-FL (subtype B), UniProt P20871 32-848)
Assay: cell-based or functional assay

B1: MAb 2G12 (antibody, V domains shown)
VH: EVQLVESGGGLVKAGGSLILSCGVSNFRISAHTMNWVRRVPGGGLEWVASISTSSTYRDYADAVKGRFTVSRDDLEDFVYLQMHKMRVEDTAIYYCARKGSDRLSDNDPFDAWGPGTVVTVSP
VL: VVMTQSPSTLSASVGDTITITCRASQSIETWLAWYQQKPGKAPKLLIYKASTLKTGVPSRFSGSGSGTEFTLTISGLQFDDFATYHCQHYAGYSATFGQGTRVEIKR
neutralization of Env-pseudotyped virus infectivity (U87.CD4.CCR5 cells), mean IC50: 1.6 µg/mL
